Data set [1] concerns the target GmPOPB-S577A (inactive mutant) (Galerina marginata) (UniProt H2E7Q8). Description: ITC; 200 uM peptide in the syringe titrated into 20 uM protein in the cell; 20 °C; 50 mM Tris (pH 8.0), 50 mM NaCl, 10 mM DTT; single-site model, n fixed at 1.0.
In data set [2] the test system is CC[C@H](C)[C@H](N)C(=O)N[C@@H](Cc1c[nH]c2ccccc12)C(=O)NCC(=O)N[C@H](C(=O)NCC(=O)N[C@@H](CS)C(=O)N[C@@H](CC(N)=O)C(=O)N1CCC[C@H]1C(=O)N[C@@H](Cc1c[nH]c2ccccc12)C(=O)N[C@H](C(=O)N[C@@H](C)C(=O)N[C@@H](CCC(=O)O)C(=O)N[C@@H](Cc1c[nH]cn1)C(=O)N[C@H](C(=O)N[C@@H](CC(=O)O)C(=O)N[C@@H](CCC(N)=O)C(=O)N[C@H](C(=O)N[C@@H](CC(C)C)C(=O)N[C@@H](C)C(=O)N[C@@H](CO)C(=O)NCC(=O)N[C@@H](CC(N)=O)C(=O)N[C@@H](CC(=O)O)C(=O)N[C@H](C(=O)N[C@@H](CS)C(=O)O)[C@@H](C)CC)[C@@H](C)O)C(C)C)[C@@H](C)O)[C@@H](C)CC. The experiment in a line: purified protein, by the assay type. Conditions: 50 mM NaCl, 10 mM DTT, duplicate.

The target in another data set is His680 (UniProt position 680, DTKAGHGAGKP). The experiment in a line: other (titration of the catalytic histidine; the title of ref 41 indicates inhibitor binding). The settings on record: cited from earlier work.
Data set [3] deals with T1, GmPOPB (Galerina marginata, UniProt H2E7Q8).
T1 construct: His tag (TEV-cleavable) (cleaved yes); made in house; host or cells: E. coli BL21(DE3)
Description: Global fitting by numerical integration of quenched-flow and stopped-flow data. Conditions: read-out: k–5 (tail association), Kintek best-fit. Format: biochemical.

Data set [4] addresses T1, GmPOPB. Description: biochemical. The settings on record: Figure S10, fit to Equation S4; activity normalized to no inhibitor (100%) and 50 µM recognition sequence (0%).
For data set [5], the target named is GmPOPB–tail complex (GmPOPB-S577A pre-mixed with the peptide tail) (Galerina marginata) (UniProt H2E7Q8). Description: stopped-flow tryptophan fluorescence; analytical fitting; excitation 285 nm, emission above 320 nm; 20 °C; 50 mM Tris-HCl (pH 8.0), 50 mM NaCl, 10 mM DTT; constants calculated from rate constants; Kov is an apparent dissociation constant for a two-step binding process.

For data set [6] the target is unchanged. Description: stopped-flow tryptophan fluorescence; global fitting by numerical integration (KinTek Global Kinetic Explorer) of stopped-flow binding and quenched-flow turnover data together; 20 °C; k1/k-1 and k5/k-5 linked by the ITC Kd values; k4 and k-4 fixed at best-fit values.
In another data set the test system is porcine POP. Conditions: cited from earlier work.
The target in data set [7] is T2, Prolyl oligopeptidase B from Galerina marginata (GmPOPB) (Galerina marginata, UniProt H2E7Q8 1-730).
T2 sequence (looked up): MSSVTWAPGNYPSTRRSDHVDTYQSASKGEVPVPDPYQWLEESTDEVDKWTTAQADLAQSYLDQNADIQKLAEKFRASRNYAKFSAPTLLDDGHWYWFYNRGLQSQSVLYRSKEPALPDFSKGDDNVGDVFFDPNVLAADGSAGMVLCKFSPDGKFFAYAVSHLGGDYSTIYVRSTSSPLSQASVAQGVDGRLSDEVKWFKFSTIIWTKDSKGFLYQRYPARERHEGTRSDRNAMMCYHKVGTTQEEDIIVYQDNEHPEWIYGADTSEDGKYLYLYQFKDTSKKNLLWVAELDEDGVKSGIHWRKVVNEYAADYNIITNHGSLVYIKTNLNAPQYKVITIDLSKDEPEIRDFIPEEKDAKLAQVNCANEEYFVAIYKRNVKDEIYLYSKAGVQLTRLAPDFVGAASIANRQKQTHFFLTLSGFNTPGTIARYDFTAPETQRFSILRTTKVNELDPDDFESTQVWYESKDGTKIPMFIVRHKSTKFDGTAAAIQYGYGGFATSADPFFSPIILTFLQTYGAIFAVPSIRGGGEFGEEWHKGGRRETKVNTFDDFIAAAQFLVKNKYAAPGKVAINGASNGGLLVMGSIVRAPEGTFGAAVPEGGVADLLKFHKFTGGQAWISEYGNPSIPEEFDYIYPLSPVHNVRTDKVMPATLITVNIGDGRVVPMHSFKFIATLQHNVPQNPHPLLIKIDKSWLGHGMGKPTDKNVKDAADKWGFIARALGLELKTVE
Description: stopped-flow tryptophan fluorescence; 2 μM GmPOPB, peptide tail 0.5-20 μM, 20 °C; this experiment fitted individually by numerical integration (KinTek Global Explorer, Fitspace boundaries), no constraints. Conditions: both partners purified.

Data set [8] deals with T2, Prolyl oligopeptidase B from Galerina …. The experiment in a line: stopped-flow tryptophan fluorescence; 2 μM GmPOPB, peptide tail 0.5-20 μM, 20 °C, excitation 285 nm, emission above 320 nm; analytical fitting (replots of kobs and of amplitudes against tail concentration). The settings on record: both partners purified.
The target is the same in data set [9]. The data set is described as above. The settings on record: both partners purified. This is another data set of the same source.
For data set [10], the target named is T3, Prolyl oligopeptidase B from Galerina marginata (GmPOPB) (Galerina marginata, UniProt H2E7Q8 1-730).
T3 sequence (looked up): T2 sequence (looked up)
The experiment in a line: ITC; 200 uM peptide in the syringe titrated into 20 uM protein in the cell; 20 °C; 50 mM Tris (pH 8.0), 50 mM NaCl, 10 mM DTT; single-site model, n fixed at 1.0. The settings on record: both partners purified. On the technique in general: In ITC the heat of successive injections is recorded.

Data set [11] addresses T3, Prolyl oligopeptidase B from Galerina …. The experiment in a line: stopped-flow tryptophan fluorescence; global fitting by numerical integration (KinTek Global Kinetic Explorer) of stopped-flow binding and quenched-flow turnover data together; 20 °C; k1/k-1 and k5/k-5 linked by the ITC Kd values; k4 and k-4 fixed at best-fit values. Conditions: both partners purified.
Data set [12] shares this target. The experiment in a line: ITC; 200 uM peptide in the syringe titrated into 20 uM protein in the cell; 20 °C; 50 mM Tris (pH 8.0), 50 mM NaCl, 10 mM DTT; single-site model, n fixed at 1.0. Conditions: both partners purified. The source holds these as a separate data set.
For data set [13] the target is unchanged. Description: stopped-flow tryptophan fluorescence; analytical fitting; excitation 285 nm, emission above 320 nm; 20 °C; 50 mM Tris-HCl (pH 8.0), 50 mM NaCl, 10 mM DTT; constants calculated from rate constants; Kov is an apparent dissociation constant for a two-step binding process. The settings on record: both partners purified.
The mark [14] stands for this setting: other: 20 °C, 50 mM Tris-HCl (pH 8.0), standard error, 20.0 °C.

The stoichiometry N is a count of units in the complex or per binding partner. A word on the Km: it is the substrate concentration at which the rate is half of its maximum. As a reminder, the pKa is the negative logarithm of the acid dissociation constant. For orientation: IC50 means the concentration that gives 50% inhibition. The term koff denotes a measure of how fast the partners let go of each other. The low end stands for a long-lived complex, the high end for a short-lived complex.

Where “and” joins values, the source holds several entries; their conditions need not be identical. Equal values may be shown once. Where no end group is shown, it is not given here.

Sequence of 25mer peptide substrate of GmPOPB (core plus peptide tail of the amanitin precursor) (A0A067SLB9 11-35 limits assumed): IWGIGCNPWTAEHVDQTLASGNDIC

Turning to “25mer peptide substrate of GmPOPB (core plus peptide tail of the amanitin precursor)”, in [1], the stoichiometry N was determined as 1.

Take GmPOPB (Galerina marginata CBS 339.88): the Km was 55 µM and 55.4 ± 18.6 µM in data set [2] (setting [14]); 51 µM in data set [2] (other: H2O, 37 °C, 50 mM Tris (pH 8.0), LC–MS, 37.0 °C). Besides, the kcat in data set [2] (setting [14]) is reported as 0.23 ± 0.03 s^–1.

Consider “Prolyl oligopeptidase (prolyl endopeptidase, POP) (Sus scrofa)”, for which the pKa in the data set with His680 is 6.25.

Regarding WTAEHVDQTLASGNDIC [peptide tail], on GmPOPB [3], the kon was determined as 3.22e+06 ± 10000 M⁻¹ s⁻¹. The molecule further yielded a concentration for half-maximal inhibition (IC50) on GmPOPB [4] of 320 ± 100 nM.

Turning to “eight-amino acid cyclic peptide product of the GmPOPB macrocyclization reaction”, the Kd in data set [5] was 99.2 nM. Also, in data set [6], the k3 (slower step of the two-step binding, direction of release of the cyclic peptide) was determined as 12.3 s^–1; the k4 (fast bimolecular step of the two-step binding, dissociation of the cyclic peptide) was 100 s^–1; the k-3 (slower step of the two-step binding, direction of binding of the cyclic peptide) came to 0.78 μM^–1 s^–1; the k-4 (fast bimolecular step of the two-step binding, association of the cyclic peptide) is 60 μM^–1 s^–1.

“porcine POP: Sus scrofa (porcine) prolyl oligopeptidase”: the “activation energy, porcine POP” value in the data set on porcine POP (depending on the substrate used) is on record as 14 to 20 kcal mol^–1. Also, in the data set on porcine POP (dipeptide substrate), the “pKa (first), porcine POP” value was 5; the “pKa (second), porcine POP” value was 7; the “pKa (third), porcine POP” value is given as 9.5. Further, in the data set on porcine POP (titration of the catalytic histidine), the “pKa of catalytic His680, porcine POP” value is listed as 6.25.

Regarding WTAEHVDQTLASGNDIC [Peptide tail (WTAEHVDQTLASGNDIC)], in data set [7], the koff came to 0.58 s⁻¹ and the kon was determined as 4.69e+06 M⁻¹ s⁻¹. The molecule further displayed a Kd in [8] of 322 ± 37.5 nM. Also, in [9], the koff stood at 3.54 s⁻¹ and the kon amounted to 4.84e+06 M⁻¹ s⁻¹.

Consider WTAEHVDQTLASGNDIC [peptide tail (17-amino acid C-terminal recognition sequence)], for which the Kd is 442 nM in [10] and 731 nM in [13]. In addition, the koff in data set [11] came to 1.44 s⁻¹. Besides, in data set [12], the “stoichiometry N” value was about 1.

These data come from publication PMC5397884 (Biochemistry, 2017).
